Legend:
rabbit antithrombin [1] = molecular target: T1, rabbit antithrombin (rabbit); test: ELISA, sdAb coated, plasma 1/4, bound antithrombin probed with polyclonal anti-antithrombin
T1 construct: Native protein in plasma diluted 1/4; also called rabbit AT; antithrombin in rabbit plasma
Description: (§1) sdAbs KB-AT-001, -002. -003, -004, -005, -006, and -007 were immobilized (10 microgram/ml) in 10 mM NaHCO₃, 50 mM Na2CO3 (pH 9.5) in a volume of 50 microliter in half-well microtiter plates (Greiner Bio-One, Les Ulis, France) for 16 h at 4° C. As a positive control, polyclonal anti-antithrombin antibodies (MATIII-EIA kit, Affinity biologicals, Ancaster Canada) were immobilized in a similar fashion. As a negative control, the anti-von Willebrand sdAb KB-VWF-006 was immobilized. After washing the wells three times with 100 microliter/well using Tris-buffered saline (pH 7.6) supplemented with 0.1% Tween-20 (TBS-T), wells were blocked with 100 microliter/well of TBS-T supplemented with 3% bovine serum albumin (BSA) for 30 min at 37° C. Wells were washed as described above, and subsequently the following plasma preparations (diluted ¼ in TBS-T/3% BSA, 100 microliter per well, 2 hours at 37° C.) were added to each of the immobilized sdAbs and both types of control wells: rabbit plasma, canine plasma, simian plasma, bovine plasma, porcine plasma, rat plasma, murine plasma and human plasma.
(§2) Wells were then washed three times with 100 microliter/well using TBS-T. Bound antithrombin was probed with peroxidase-labeled polyclonal anti-antithrombin antibodies (MATIII-EIA kit, Affinity biologicals, Ancaster Canada; diluted 1/100) for 2 hours at 37° C. with 50 microliter per well. Wells were then washed three times with 100 microliter/well using TBS-T. Residual peroxidase activity was detected by measuring peroxidase-mediated hydrolysis of 3,3′,5,5′-tetramethylbenzidine.
(§3) Negative binding (−) was defined as optical density (OD) being ≤0.1, moderate positive binding (+) was defined as OD being >0.1 and <0.5, strongly positive binding (++) was defined as OD being ≥0.5. […] All plasma preparations had moderate or strongly positive binding to the positive control (polyclonal anti-antithrombin antibodies).

bovine antithrombin = molecular target: T2, bovine antithrombin (bovine, UniProt P41361 33-465); test: as above
T2 construct: Native protein in plasma diluted 1/4; also called bovine AT; antithrombin in bovine plasma
T2 sequence (P41361 33-465): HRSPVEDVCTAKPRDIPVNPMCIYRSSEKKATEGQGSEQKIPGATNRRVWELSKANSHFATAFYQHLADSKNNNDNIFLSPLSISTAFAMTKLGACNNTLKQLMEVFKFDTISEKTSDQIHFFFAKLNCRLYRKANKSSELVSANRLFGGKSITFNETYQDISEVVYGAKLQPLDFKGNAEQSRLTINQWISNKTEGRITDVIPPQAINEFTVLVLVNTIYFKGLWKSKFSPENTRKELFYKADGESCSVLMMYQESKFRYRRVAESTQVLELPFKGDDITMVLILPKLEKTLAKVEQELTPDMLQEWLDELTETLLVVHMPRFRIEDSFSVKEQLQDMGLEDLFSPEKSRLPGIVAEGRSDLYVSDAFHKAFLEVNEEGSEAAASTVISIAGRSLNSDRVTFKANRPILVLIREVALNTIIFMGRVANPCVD
Description: as §1, §2, §3

canine antithrombin [2] = molecular target: T3, canine antithrombin (canine); test: ELISA, sdAb coated, plasma 1/4, bound antithrombin probed with polyclonal anti-antithrombin; grade by OD
T3 construct: Native protein in plasma diluted 1/4; also called canine AT; antithrombin in canine plasma
Description: as §1, §2, §3

rat antithrombin [3] = molecular target: T4, rat antithrombin (rat, UniProt Q8VHJ4); test: as above
T4 construct: Native protein in plasma diluted 1/4; also called rat AT; antithrombin in rat plasma
Description: as §1, §2, §3

porcine antithrombin [4] = molecular target: T5, porcine antithrombin (porcine); test: as above
T5 construct: Native protein in plasma diluted 1/4; also called porcine AT; antithrombin in porcine plasma
Description: as §1, §2, §3

murine antithrombin [5] = molecular target: T6, murine antithrombin (mouse, UniProt P32261 33-465); test: as above
T6 construct: also called mouse antithrombin; murine AT
T6 sequence (P32261 33-465 limits assumed): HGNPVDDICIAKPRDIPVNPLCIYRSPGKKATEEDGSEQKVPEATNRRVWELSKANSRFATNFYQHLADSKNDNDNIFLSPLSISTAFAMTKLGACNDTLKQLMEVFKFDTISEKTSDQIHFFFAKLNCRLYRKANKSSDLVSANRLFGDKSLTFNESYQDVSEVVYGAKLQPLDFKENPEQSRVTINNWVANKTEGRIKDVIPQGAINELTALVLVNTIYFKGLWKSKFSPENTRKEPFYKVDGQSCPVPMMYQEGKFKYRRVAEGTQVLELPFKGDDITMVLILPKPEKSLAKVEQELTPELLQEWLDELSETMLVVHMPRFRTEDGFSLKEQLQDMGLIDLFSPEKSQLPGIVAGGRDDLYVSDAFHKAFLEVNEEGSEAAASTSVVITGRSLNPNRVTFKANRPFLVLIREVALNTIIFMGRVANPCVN
Description: as §1, §2, §3

simian antithrombin = molecular target: T7, simian antithrombin (simian); test: as above
T7 construct: Native protein in plasma diluted 1/4; also called simian AT; antithrombin in simian plasma
Description: as §1, §2, §3

human antithrombin [6] = molecular target: T8, human antithrombin (human, UniProt P01008 33-464); test: as above
T8 construct: Serpin; the description says that AT consists of 432 amino acids; also called purified human antithrombin; AT
T8 sequence (P01008 33-464 limits assumed): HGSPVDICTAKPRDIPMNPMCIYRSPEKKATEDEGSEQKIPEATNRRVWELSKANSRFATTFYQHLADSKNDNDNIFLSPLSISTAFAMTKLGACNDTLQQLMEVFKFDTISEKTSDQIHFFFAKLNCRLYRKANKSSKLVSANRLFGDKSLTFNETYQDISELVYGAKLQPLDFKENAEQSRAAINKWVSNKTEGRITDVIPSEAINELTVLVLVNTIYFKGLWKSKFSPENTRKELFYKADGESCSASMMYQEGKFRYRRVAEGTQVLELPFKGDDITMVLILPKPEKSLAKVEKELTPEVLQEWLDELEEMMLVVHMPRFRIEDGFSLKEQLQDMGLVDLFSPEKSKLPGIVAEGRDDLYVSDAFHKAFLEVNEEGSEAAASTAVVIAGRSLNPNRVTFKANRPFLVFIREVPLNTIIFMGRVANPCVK
Description: as §1, §2, §3

human antithrombin [7] = molecular target: T8, human antithrombin; test: cell-based or functional assay
human antithrombin [8] = molecular target: T8, human antithrombin; test: cell-based or functional assay; remark: listed apart in the source
murine antithrombin [9] = molecular target: T6, murine antithrombin; test: ELISA: sdAb coated on the plate, antithrombin added in solution; the concentration is that of antithrombin
Description: (§4) sdAbs recognizing antithrombin (KB-AT-001, -002, -003, -004, -005, -006, and -007) were immobilized (5 microgram/ml) in 10 mM NaHCO₃, 50 mM Na2CO3 (pH 9.5) in a volume of 50 microliter in half-well microtiter plates (Greiner Bio-One, Les Ulis, France) for 16 h at 4° C. After washing the wells three times with 100 microliter/well using Tris-buffered saline (pH 7.6) supplemented with 0.1% Tween-20 (TBS-T), wells were blocked with 100 microliter/well of TBS-T supplemented with 5% skimmed milk for 30 min at 37° C. Wells were washed as described above, and subsequently different concentrations of purified human antithrombin or murine antithrombin (0-5 micromolar diluted in Tris-buffered saline (pH 7.6) supplemented with 5% skimmed milk; 50 microliter/well) were added to each of the immobilized sdAbs and incubated for 2 hours. Wells were then washed three times with 100 microliter/well using TBS-T. Bound antithrombin was probed with peroxidase-labeled polyclonal rabbit anti-antithrombin antibodies (Diagnostica Stago, Asnièrs-sur-Seine, France; Dilution 1/100) for 1 hour at 37° C. with 50 microliter per well. Wells were then washed three times with 100 microliter/well using TBS-T. Residual peroxidase activity was detected by measuring peroxidase-mediated hydrolysis of 3,3′,5,5′-tetramethylbenzidine. OD-values were plotted against antithrombin concentrations (FIG. 1).

canine antithrombin [10] = molecular target: T3, canine antithrombin; test: ELISA, sdAb coated, plasma 1/4, bound antithrombin probed with polyclonal anti-antithrombin
Description: as §1, §2, §3

rat antithrombin [11] = molecular target: T4, rat antithrombin; test: as above
Description: as §1, §2, §3

porcine antithrombin [12] = molecular target: T5, porcine antithrombin; test: as above
Description: as §1, §2, §3

human antithrombin [13] = molecular target: T8, human antithrombin; test: BLI (Octet-QK), sdAb coupled to sensor, antithrombin 12.5-50 ug/ml; apparent KD
Description: The interaction between sdAbs KB-AT-001, KB-AT-002, KB-AT-003 and KB-AT-006 versus human antithrombin was further analyzed via biolayer-interferometry analysis using Octet-QK equipment in order to determine apparent dissociation constants (KD,app). To this end, sdAbs KB-AT-001, KB-AT-002, KB-AT-003 and KB-AT-006 were diluted in 0.1 M Mes (pH 5.0) to a concentration of 200 microgram/ml for coupling to EDC/NHS-activated amine-reactive biosensors (Fort6bio, Menlo Park, Calif., USA). Sensors were rehydrated in 0.2 ml 0.1 M MES, pH 5.0 for 300 sec. Sensors were then activated via incubation with 0.1 ml 0.2 M EDC/0.095 M NHS mixture for 300 sec and subsequently incubated with 0.1 ml sdAb-solution for 600 sec. […] Following this association phase, sensors were transferred to wells containing PBS-T and incubated for 900 sec, allowing dissociation of the antithrombin-sdAb complex. Obtained data were subsequently analyzed using Octet-QK data analysis software (Origin vs 4) to estimate KD,app.

human antithrombin [14] = molecular target: T8, human antithrombin; test: ELISA: sdAb coated on the plate, antithrombin added in solution; the concentration is that of antithrombin
Description: as §4

rabbit antithrombin [15] = molecular target: T1, rabbit antithrombin; test: ELISA, sdAb coated, plasma 1/4, bound antithrombin probed with polyclonal anti-antithrombin; grade by OD
Description: as §1, §2, §3

Binder | OD (rabbit antithrombin [1]) | OD (bovine antithrombin) | OD (canine antithrombin [2]) | OD (rat antithrombin [3]) | OD (porcine antithrombin [4]) | OD (murine antithrombin [5]) | OD (simian antithrombin) | OD (human antithrombin [6]) | % antithrombin neutralization (thrombin amidolytic activity on S-2238, no heparin) (human antithrombin [7]) | percentage of neutralization of antithrombin-mediated factor Xa inhibition, with LMW-heparin (human antithrombin [8]) | percentage of neutralization of antithrombin-mediated thrombin inhibition, with unfractionated heparin (human antithrombin [8]) | EC50 (read off the curve) (murine antithrombin [9]) | OD (canine antithrombin [10]) | OD (rat antithrombin [11]) | OD (porcine antithrombin [12]) | Kd (human antithrombin [13]) | EC50 (read off the curve) (human antithrombin [14]) | OD (rabbit antithrombin [15])
KB-AT-004 (VHH, Monovalent anti-antithrombin single-domain antibody; also called sdAb KB-AT-004) VHH: VQLQQSGGGLVQPGGSLRLSCAASAMTFSIRAWAWYRQAPGKQRELVASIGTGDITNYADSVKGRFTISRDNAKNTFYLQMNSLKPEDTAVYYCNGYRSTYAWGQGTQVTVSS | ≤ 0.1 od | ≤ 0.1 od | 0.1 to 0.5 od | 0.1 to 0.5 od | 0.1 to 0.5 od | ≥ 0.5 od | 0.1 to 0.5 od | 0.1 to 0.5 od | 55% | < 15% | < 5% |  |  |  |  |  |  | 
KB-AT-005 (VHH, Monovalent anti-antithrombin single-domain antibody; also called sdAb KB-AT-005) VHH: EVQLVESGGGLVQPGGSLRLSCEASGRDFNDAALGWSRQVPGKARETVAMITSGGVRNYAETVKDRFTISRDNAKNTVYLDMNNLQPDDTGVYYCKADSFKGDYDTSWYLYWGQGTQVTVSS | ≤ 0.1 od | ≤ 0.1 od |  |  |  | 0.1 to 0.5 od | 0.1 to 0.5 od | 0.1 to 0.5 od | 57% | < 15% | < 5% | ~400 nM | ≤ 0.1 od | ≤ 0.1 od | ≤ 0.1 od |  |  | 
KB-AT-003 (VHH, Monovalent anti-antithrombin single-domain antibody; also called sdAb KB-AT-003) VHH: QVQLVQSGGGLVQPGGSLRLSCAASALTFSSRAWAWYRQAPGKQRELVASITGGGTTNYADSVKGRFTISRDNAKNTVYLQMNSLKPEDTAVHYCNGYRYTYAWGQGTQVTVSS | ≤ 0.1 od | ≤ 0.1 od | 0.1 to 0.5 od | 0.1 to 0.5 od |  | ≥ 0.5 od | ≥ 0.5 od | ≥ 0.5 od | 67% | < 15% | < 5% |  |  |  | ≤ 0.1 od | 0.4 nM |  | 
KB-AT-001 (VHH, Monovalent anti-antithrombin single-domain antibody; also called sdAb KB-AT-001) VHH: QVQLQQSGGDLAQRGGSLRLSCAASGRTFRNYVMGWFRQAPGKDPEFIAGINRSGAITYYGDSVKGRFTISRDNAKNTVSLQMNSLEPEDTAVYYCAAGETTWSIRRDDYDYWGQGTQVTVSS |  | ≤ 0.1 od |  | 0.1 to 0.5 od |  | ≥ 0.5 od | ≥ 0.5 od | 0.1 to 0.5 od | 62% | < 15% | < 5% | ~600 nM | ≤ 0.1 od |  | ≤ 0.1 od | 14 nM | ~700 nM | 0.1 to 0.5 od
KB-AT-007 (VHH, Monovalent anti-antithrombin single-domain antibody; same CDRs as KB-AT-001; also called sdAb KB-AT-007) VHH: QVQLQQSGGGLVQAGGSLRLSCAASGRTFRNYVMGWFRQAPGKDPEFIAGINRSGAITYYGDSVKGRFTISRDNAKNTVSLQMNSLEPEDTAVYYCAAGETTWSIRRDDYDYWGQGTQVTVSS | ≤ 0.1 od | ≤ 0.1 od |  |  |  | 0.1 to 0.5 od | ≥ 0.5 od | 0.1 to 0.5 od | 61% | < 15% | < 5% |  | ≤ 0.1 od | ≤ 0.1 od | ≤ 0.1 od |  |  | 
KB-AT-006 (VHH, Monovalent anti-antithrombin single-domain antibody; also called sdAb KB-AT-006) VHH: QVQLQQSGGGLVQAGGSLRLSCAASGRTFSNNGMGWFRQAPGKEREFVAAISWSSGSTYYADSVKGRYTISRDNAKNTVYLQMNSLKPEDTAVYYCAARTRYNSGYFTRNYDYWGQGTQVTVSS |  | ≤ 0.1 od | 0.1 to 0.5 od | 0.1 to 0.5 od | 0.1 to 0.5 od | 0.1 to 0.5 od | ≥ 0.5 od | 0.1 to 0.5 od | 58% | < 15% | < 5% |  |  |  |  | 22 nM | ~500 nM | ≥ 0.5 od

From patent publication US20190100602A1 (INSERM INSTITUT NATIONAL DE LA SANT ET DE LA RECHERCHE M …, published 2019)
